Laboratory results as given in the supplement of paper PMC10724198.
± gives the standard deviation of the averaged measurements.

Columns and labels:
Saccharomyces cerevisiae [1] = experiment: protein stability index of tFT-peptide fusion (C-terminal peptide) (PSI (0-1 scale)); higher = more stable (slower turnover); details: genetic background: wild type; temperature: 30 C
Saccharomyces cerevisiae [2] = experiment: as above
Experimental: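 MPS profiling in S. cerevisiae of the tFT-X12 degron library: putative degron peptides plus stable controls, 12 aa, fused to the C-terminus of a sfGFP-mCherry timer. Cells are FACS-sorted into 8 mCherry/sfGFP bins and deep-sequenced. PSI runs from 0 (unstable) to 1 (stable). Backgrounds are wild type, das1Δ and doa10Δ at 30 °C, and wild type, das1Δ, cdc34-1 and cdc53-1 at 37 °C; 2-3 technical replicates each.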

[3] = genetic background: cdc34-1, temperature: 37 C
[4] = genetic background: cdc53-1, temperature: 37 C
[5] = genetic background: das1 deletion, temperature: 30 C
[6] = genetic background: das1 deletion, temperature: 37 C
[7] = genetic background: doa10 deletion, temperature: 30 C
[8] = genetic background: wild type, temperature: 30 C
[9] = genetic background: wild type, temperature: 37 C
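Note: PSI is a weighted mean of sequencing reads over stability bins, variants kept only with over 10 reads, mCherry proximal and sfGFP distal, peptide attached via GGGS linker.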

Sequence	protein stability index (Saccharomyces cerevisiae [1])	protein stability index (Saccharomyces cerevisiae [2]; [3])	protein stability index (Saccharomyces cerevisiae [2]; [4])	protein stability index (Saccharomyces cerevisiae [2]; [5])	protein stability index (Saccharomyces cerevisiae [2]; [6])	protein stability index (Saccharomyces cerevisiae [2]; [7])	protein stability index (Saccharomyces cerevisiae [2]; [8])	protein stability index (Saccharomyces cerevisiae [2]; [9])
FFFFLFRSIFLS	0.152 ± 0.0068	0.146 ± 0.12	0.124 ± 0.013	0.293 ± 0.05	0.394 ± 0.094	0.179 ± 0.0022	0.118 ± 0.012	0.138 ± 0.011
FFFFSMLIFCAV	0.191 ± 0.0034	0.06041 ± 0.00022	0.106 ± 0.025	0.156 ± 0.016	0.226 ± 0.013	0.129 ± 0.01	0.136 ± 0.0094	0.192 ± 0.0081
FFFLLPRLFRCV	0.45 ± 0.017	0.791 ± 0.053	0.835 ± 0.012	0.707 ± 0.03	0.773 ± 0.011	0.445 ± 0.018	0.449 ± 0.012	0.5611 ± 0.0017
FFLFCWFVPRFS	0.435 ± 0.018	0.454 ± 0.0056	0.512 ± 0.0079	0.379 ± 0.027	0.553 ± 0.012	0.349 ± 0.014	0.351 ± 0.027	0.498 ± 0.016
FFLLCFMMCVLL	0.259 ± 0.053	0.291 ± 0.015	0.291 ± 0.014	0.289 ± 0.043	0.374 ± 0.025	0.288 ± 0.01	0.219 ± 0.032	0.348 ± 0.01
FFLPIFFSIFLS	0.156 ± 0.013	0.068 ± 0.038	0.0346 ± 0.0085	0.152 ± 0.017	0.198 ± 0.0023	0.281 ± 0.0056	0.108 ± 0.022	0.155 ± 0.0049
FFLSAFFFFFLF	0.361 ± 0.0086	0.342 ± 0.04	0.346 ± 0.017	0.359 ± 0.015	0.4409 ± 0.0039	0.3669 ± 0.002	0.291 ± 0.027	0.36913 ± 0.00026
FFMLLYSFFTFD	0.418 ± 0.014	0.434 ± 0.0044	0.50402 ± 2.8e-06	0.38 ± 0.033	0.51926 ± 0.00029	0.348 ± 0.004	0.375 ± 0.035	0.506 ± 0.024
FFSSSASVLFII	0.299 ± 0.016	0.686 ± 0.11	0.7852 ± 0.0067	0.663 ± 0.029	0.79 ± 0.0075	0.19 ± 0.015	0.198 ± 0.016	0.394 ± 0.039
FFTLLLFLFFSV	0.321 ± 0.0086	0.352 ± 0.035	0.278 ± 0.032	0.3 ± 0.026	0.435 ± 0.039	0.395 ± 0.0048	0.293 ± 0.03	0.411 ± 0.022
FFVACCSFVFLL	0.335 ± 0.066	0.369 ± 0.024	0.436 ± 0.03	0.35 ± 0.022	0.478 ± 0.0052	0.197 ± 0.007	0.203 ± 0.022	0.316 ± 0.019
FGFGSSRFLLCL	0.471 ± 0.029	0.677 ± 0.015	0.731 ± 0.0042	0.609 ± 0.027	0.743 ± 0.0099	0.3357 ± 0.0026	0.384 ± 0.028	0.604 ± 0.026
FGFLVVLFDCVR	0.436 ± 0.07	0.336 ± 0.0095	0.437 ± 0.015	0.327 ± 0.034	0.474 ± 0.017	0.2652 ± 0.00067	0.291 ± 0.028	0.464 ± 0.0057
FGVFLLWCVLLL	0.274 ± 0.077	0.226 ± 0.0076	0.297 ± 0.017	0.213 ± 0.023	0.339 ± 0.013	0.217 ± 0.01	0.191 ± 0.013	0.352 ± 0.075
FIAVSLSVFLVF	0.234 ± 0.011	0.159 ± 0.015	0.286 ± 0.0034	0.189 ± 0.022	0.322 ± 0.012	0.1758 ± 0.00094	0.181 ± 0.024	0.287 ± 0.003
